T1: 8-residue Asp-peptide (DHGSGAWL)
T1 chain: CHSGAWL

T2: 8-residue Cys-peptide (CHGSGAWL)
T2 chain: CHGSGAWL

T3: CysO3H-peptide
T3 chain: CHGSGAWL

B1: mouse ATE1-1 R-transferase C-terminally tagged with the polyoma and His6 epitopes (protein)
chain: MASWSAPSPSLVEYFEGQTSFQCGYCKNKLGSRSYGMWAHSMTVQDYQDLIDRGWRRSGKYVYKPVMDQTCCPQYTIRCHPLQFQPSKSHKKVLKKMLKFLAKGEISKGNCEDEPMDSTVEDAVDGDFALINKLDIKCDLKTLSDLKGSIESEEKEKEKSIKKEGSKEFIHPQSIEEKLGSGEPSHPIKVHIGPKPGKGADLSKPPCRKAREMRKERQRLKRMQQASAAASEAQGQPVCLLPKAKSNQPKSLEDLIFQSLPENASHKLEVRVVRSSPPSPQFRATFQESYQVYKRYQMVVHKDPPDKPTVSQFTRFLCSSPLEAEHPADGPECGYGSFHQQYWLDGKIIAVGVLDILPYCVSSVYLYYDPDYSFLSLGVYSALREIAFTRQLHEKTSQLSYYYMGFYIHSCPKMRYKGQYRPSDLLCPETYVWVPIEQCLPSLDNSKYCRFNQDPEAEDEGRSKELDRLRVFHRRSAMPYGVYKNHQEDPSEEAGVLEYANLVGQKCSERMLLFRHHHHHHH
B2: S. cerevisiae ATE1 Arg-tRNA-protein transferase C-terminally tagged with His6 (protein)
chain: MSDRFVIWAPSMHNEPAAKCGYCHGNKGGNMDQLFALDSWAHRYMNKMDVVKIENCTIGSFVEHMDVATYDRMCNMGFRRSGKFLYKVDPLRNCCRLYTIRTAPQELNMTKELKKCISRFATRITSEDYCPAAVASSDFVGKIVNAEMNSKTFYTRFEPALYSEEKYHLFVKYQEKVHQDYNNSPKSFKRFLCDTPFGPEAVLGTQESWEQLNNWQRMKPGEKLKHMGPVHECYYYEGKLIAITVSDILPSGISSVYFIWDPDYSKWSLGKLSALRDLAIIQRTNLQYYYLGYYIEDCPKMNYKANYGAEVLDVCHSKYIPLKPIQDMISRGKLFVIGEEETKVTKELYLVDSETGRGEGFPTDNVVKYKNIAEEIYGVGGCAFKSANESALELKELYGIPYEEEDLDTIYHLKEHNGHAPNGIPNVVPGLLPLWELLDIMQSGKITDLEGRLFLFEIETEGIRPLINFYSEPPNVKKRICDVIRLFGFETCMKAVILYSEQMHHHHHH

Experiments:
[1] = target: T1, 8-residue Asp-peptide (DHGSGAWL)
[2] = target: T2, 8-residue Cys-peptide (CHGSGAWL)
[3] = target: Asp-RGS4 (X-RGS4-flag, X=Asp)
[4] = target: Cys-RGS4 (X-RGS4-flag, X=Cys)
CysO3H-peptide = target: T3, CysO3H-peptide
[5] = target: Val-RGS4 (X-RGS4-flag, X=Val)

Protein | arginylation of peptide (capillary electrophoresis, MALDI-TOF MS), pH 7.5 [1] | arginylation of peptide (capillary electrophoresis), pH 9.0 [2] | arginylation of peptide (capillary electrophoresis, MALDI-TOF MS), pH 7.5 [2] | 3H-arginine conjugation (SDS-PAGE and fluorography) [3] | 3H-arginine conjugation (SDS-PAGE and fluorography) [4] | arginylation of peptide (capillary electrophoresis, MALDI-TOF MS), pH 7.5 (CysO3H-peptide) | 3H-arginine conjugation (SDS-PAGE and fluorography) [5] | arginylation of peptide (capillary electrophoresis) [1] | arginylation of peptide (capillary electrophoresis) [2] | arginylation of peptide (capillary electrophoresis) (CysO3H-peptide)
B1 | the Asp-peptide and the CysO3H-peptide were efficiently arginylated | arginylation of Cys-peptide was undetectable even at pH 9.0, in contrast to arginylation of CysO3H-peptide and Asp-peptide | the Cys-peptide was not arginylated | Asp-RGS4 was efficiently arginylated irrespective of NO pretreatment | a virtually complete dependence of the in vitro arginylation of Cys-RGS4 on its prior exposure to a donor of NO | the Asp-peptide and the CysO3H-peptide were efficiently arginylated | Val-RGS4 was not arginylated |  |  | 
B2 |  |  |  |  |  |  |  | The same results were obtained when mouse ATE1-1 was replaced, in the above assays, with purified S. cerevisiae ATE1 R-transferase | Yeast R-transferase efficiently arginylated CysO3H-peptide, but not Cys-peptide | Yeast R-transferase efficiently arginylated CysO3H-peptide, but not Cys-peptide

Reference: patent US20060084097
